Here are results for 72 sequences from the supplement of paper PMC10567573.

This data set is described as follows: protein stability index of a GFP-peptide fusion (GPS, HEK-293T) (PSI 1-6); higher = more stable.
Where [1] appears, read: treatment: DMSO, c terminus: a fixed tail appended.
Setting [2] is: treatment: MLN4924 1 uM, 8 h, c terminus: a fixed tail appended.

± gives the standard deviation.
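Also: 24-mer peptide tiles fused after GFP, lentivirally expressed, FACS-sorted into six equal bins by GFP/DsRed ratio, decoded by Illumina sequencing, PSI is the read-weighted mean bin number.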

Take ILFLNKKDLFEEKIKKSPLTICYP [GNAI1]: the protein stability index reads like this: under setting [1], 2.43 ± 0.9; under setting [2], 2.21 ± 0.75.

Consider ILFLVIGGMLNFMMHDQRTGPAWN [SOAT2], for which the protein stability index was 3.27 ± 0.46 under setting [1] and 3.26 ± 0.55 under setting [2].

ILSGLDDMSIGGNLSKTQNMERFG [CDC14A] registered a protein stability index under setting [1] of 3.24 ± 0.22 and a protein stability index under setting [2] of 3.08 ± 0.26.

Turning to IMDRFDCQYLMATFVNVYIASFIR [CDS2], the protein stability index reads like this: under setting [1], 3.423 ± 0.005; under setting [2], 3.33 ± 0.31.

With INYKLKSVAHLPWRMLTYKALNTF [CLPTM1], the protein stability index turned out to be 2.44 ± 0.65 under setting [1] and 2.31 ± 0.36 under setting [2].

IPDAFWWAVVTMTTVGYGDMKPIT [KCNA4]: the protein stability index under setting [1] worked out at 3.8 ± 0.42 and the protein stability index under setting [2] stood at 3.53 ± 0.16.

Turning to IPGEHFWLLLLTRGLVGVGEASYS [SPNS1], the protein stability index by setting is: under setting [1], 3.1 ± 0.47; under setting [2], 2.37 ± 0.58.

As to IPPAAMLDQAPKARKYFERLPGGG [DYRK1B], the protein stability index by setting is: under setting [1], 3.72 ± 0.27; under setting [2], 3.64 ± 0.061.

In the case of IQLGVTPPGYSAWIKEEAAERYLY [SLC6A17], the protein stability index is, setting by setting: under setting [1], 2.31 ± 0.25; under setting [2], 2.36 ± 0.15.

The sequence IRQYRLKKISKEEKTPGCVKIKKC [KRAS] yielded a protein stability index under setting [2] of 3.31 ± 0.24.

As to ISKGEEPRAGKEESGVSVSNSQPT [SLC29A1], the protein stability index amounted to 5.48 ± 0.24 under setting [1] and 5.52 ± 0.22 under setting [2].

ITCVSGAIVDLISRQYDKFLTHFI [FBXO33] gave a protein stability index under setting [1] of 2.85 ± 0.53 and a protein stability index under setting [2] of 3.13 ± 0.44.

Regarding KAAQQGKQEENDVVEKLNLFLDLL [SNX8], the protein stability index reads like this: under setting [1], 2.45 ± 0.076; under setting [2], 2.64 ± 0.34.

Regarding KAIKARGEVIHCKLRAMKELSEAA [STX11], the protein stability index under setting [1] turned out to be 3.32 ± 0.29 and the protein stability index under setting [2] is 3.6 ± 0.2.

KALFTCPFNGDCRITKDNRRHCQA [VDR]: the protein stability index reads like this: under setting [1], 2.84 ± 0.31; under setting [2], 3.21 ± 0.42.

Take KAMESQRAYRFVQGKDWGFKKFIR [SPOPL]: the protein stability index is, setting by setting: under setting [1], 2.22 ± 0.38; under setting [2], 2.09 ± 0.21.

As to KDKLGVWVYKNKLIFFGGYGYLPE [KLHDC2], the protein stability index runs as follows: under setting [1], 2.25 ± 0.59; under setting [2], 3.11 ± 1.6.

In the case of KDLILRFCIDSENRIGNSGVEEIK [STK38L], the protein stability index is, setting by setting: under setting [1], 2.472 ± 0.02; under setting [2], 2.85 ± 0.42.

Turning to KERALSAPWLSLFPPEGNMEDKEM [ZNF263], the protein stability index reads like this: under setting [1], 4.82 ± 0.057; under setting [2], 4.72 ± 0.18.

With KEYTTRTQAPPSVILGVTNPFFAK [DENND6A], the protein stability index by setting is: under setting [1], 2.81 ± 0.24; under setting [2], 2.738 ± 0.021.

As for KFDHIEVRDGPFGFSPIIGRFCGQ [NETO1], the protein stability index amounted to 2.3 ± 0.28 under setting [1] and 2.44 ± 0.34 under setting [2].

The sequence KHGKRKRGRPRKLSKEYWDCLEGK [ELF3] had a protein stability index under setting [1] of 4.18 ± 0.44 and a protein stability index under setting [2] of 4.38 ± 0.18.

Regarding KHPQPAPAVTPDPWGVQGGQESEV [PKD2L1], the protein stability index is, setting by setting: under setting [1], 5.24 ± 0.22; under setting [2], 4.97 ± 0.21.

With KHSTFGQSLTQRLHALKLRSPDAS [GNAS], the protein stability index is, setting by setting: under setting [1], 3.37 ± 0.29; under setting [2], 3.44 ± 0.2.

With KKEKIIEDKTFGLKNKKGAKQQKF [ZC3H15], the protein stability index is, setting by setting: under setting [1], 4.5 ± 0.27; under setting [2], 4.33 ± 0.19.

As to KKINSNQLENEQSQENSINPIQKE [SPANXN3], the protein stability index under setting [1] was found to be 5.66 ± 0.29 and the protein stability index under setting [2] stood at 5.58 ± 0.26.

Take KKLEKYLQKLSALLMTADILAETG [ELOA2]: the protein stability index runs as follows: under setting [1], 2.74 ± 0.79; under setting [2], 2.6 ± 0.055.

As to KKTMSTFHNLVSLNLNYNCISDEL [FBXO39], the protein stability index amounted to 2.09 ± 0.21 under setting [1] and 2.18 ± 0.22 under setting [2].

As for KLEEVVNKKHGEAEKKKPKTQIVC [ZC3H15], the protein stability index came to 4.64 ± 0.18 under setting [1] and 4.63 ± 0.24 under setting [2].

The sequence KLEWAIDEDELRKSLSELVDDKFG [PSD2] displayed a protein stability index under setting [1] of 4.19 ± 0.086 and a protein stability index under setting [2] of 4.09 ± 0.26.

The sequence KLILGMPTYGRSFTLASSSDTRVG [CHIT1] registered a protein stability index under setting [1] of 2.42 ± 0.36 and a protein stability index under setting [2] of 2.46 ± 0.22.

In the case of KLMKILQPQDVDLALDSGASLLHL [RIPK4], the protein stability index by setting is: under setting [1], 2.11 ± 0.12; under setting [2], 2.52 ± 0.21.

For KLVRSPSGLRMVPEHRAFGSPFGL [ZFYVE21], the protein stability index under setting [1] was 2.32 ± 0.076 and the protein stability index under setting [2] is 2.28 ± 0.22.

KMQQSKNQVVSSTNGELNTDDPTA [CSNK1G3]: the protein stability index was 5.37 ± 0.21 under setting [1] and 5.34 ± 0.13 under setting [2].

As for KNDSLRKRYDGLKYDVKKVEEVVY [TSN], the protein stability index stood at 3.18 ± 0.22 under setting [1] and 3.32 ± 0.33 under setting [2].

Consider KNGEWGTVCDDKWDLVSASVVCRE [LOXL2], for which the protein stability index by setting is: under setting [1], 3.85 ± 0.63; under setting [2], 3.8 ± 0.73.

In the case of KNHVGKPLLKMDLNSEQAEQLERI [FAM98B], the protein stability index amounted to 4.8 ± 0.16 under setting [1] and 4.67 ± 0.19 under setting [2].

For KNWRNFASKWGMSYDELCFLEQRP [EDARADD], the protein stability index by setting is: under setting [1], 2.06 ± 0.18; under setting [2], 2.02 ± 0.23.

In the case of KPEEPPQNLLREKIMKLPLPESLK [PCMTD1], the protein stability index is, setting by setting: under setting [1], 4.57 ± 0.43; under setting [2], 4.76 ± 0.13.

With KPKMYFMTMIVSLAAVAWVGQQVH [ARL6IP1], the protein stability index amounted to 2.83 ± 0.48 under setting [1] and 3.28 ± 0.69 under setting [2].

Regarding KPYIAAHFDVLPTEFTLGDDKHYG [PTPRD], the protein stability index reads like this: under setting [1], 3.28 ± 0.49; under setting [2], 3.44 ± 0.14.

With KQLEFGLKEAPVQDQGYKTLRLRE [ZNF8], the protein stability index is, setting by setting: under setting [1], 4.3 ± 0.31; under setting [2], 4.27 ± 0.22.

Consider KQLEPLVAPLADGKVAVGQDDLTV [VPS39], for which the protein stability index is 5.14 ± 0.27 under setting [1] and 5.18 ± 0.21 under setting [2].

For KREAGNLTKATAPDQKSSGGRDS [SSNA1], the protein stability index reads like this: (treatment: DMSO, c terminus: native) 5.07 ± 0.23; (treatment: MLN4924 1 uM, 8 h, c terminus: native) 5.25 ± 0.17.

For the sequence KRFQLTKLPPYLIFCIKRFTKNNF [USP39], the protein stability index is, setting by setting: under setting [1], 2 ± 0.31; under setting [2], 2.78 ± 0.81.

In the case of KRKMVSWEASSLGLVTAALHMVIV [KMT2E], the protein stability index is, setting by setting: under setting [1], 2.53 ± 0.62; under setting [2], 3.33 ± 0.57.

Regarding KRSAPSGPVRSSSGMGGRAPVSRG [RBMX], the protein stability index by setting is: under setting [1], 4.59 ± 0.25; under setting [2], 4.57 ± 0.16.

Regarding KSERRNLLEDDSDEEEDFFLRGPS [VAMP4], the protein stability index turned out to be 5.09 ± 0.26 under setting [1] and 5.15 ± 0.66 under setting [2].

With KTSSSSKAGFTASPFTNLLNGSSQ [CDC14A], the protein stability index runs as follows: under setting [1], 3.46 ± 0.27; under setting [2], 3.51 ± 0.31.

In the case of KTVLMIAIQLLSRMEYVHSKNLIY [CSNK1G1], the protein stability index came out at 3.04 ± 0.1 under setting [1] and 3.23 ± 0.54 under setting [2].

In turn, KVHIGYLPNKQVLGLSKLARIVEI [GCH1] registered a protein stability index under setting [1] of 2.84 ± 1.1 and a protein stability index under setting [2] of 2.48 ± 0.8.

Take KVNSKKMLGKYNTPVSYRMAKTLV [ACSBG2]: the protein stability index by setting is: under setting [1], 1.81 ± 0.082; under setting [2], 2.05 ± 0.42.

Consider KVPREKDEPGKGGFWRIDPQYAER [FOXJ1], for which the protein stability index came to 4.12 ± 0.34 under setting [1] and 4.2 ± 0.21 under setting [2].

For the sequence KVQFNLQFTKPNASLGDVQSGATI [SASS6], the protein stability index was found to be 2.45 ± 0.37 under setting [1] and 2.66 ± 0.45 under setting [2].

In the case of KVSEGQADIMISFVRGDHRDNSPF [MMP1], the protein stability index is, setting by setting: under setting [1], 3.1 ± 0.41; under setting [2], 3.09 ± 0.52.

Sequence KYGGPNHHLPLPDNWKSQVEPETR [CPN1] displayed a protein stability index under setting [1] of 4.16 ± 0.3 and a protein stability index under setting [2] of 4.55 ± 0.28.

Regarding KYLKKREDSIPLRGLSQNLFSNSD [SASS6], the protein stability index amounted to 3.15 ± 0.2 under setting [1] and 3.4 ± 0.29 under setting [2].

For the sequence LAAVAWVGQQVHNLLLTYLIVTSL [ARL6IP1], the protein stability index under setting [1] is 3.32 ± 0.44 and the protein stability index under setting [2] came out at 3.3 ± 0.53.

For LACGSNRFNKLGLDHLSLGEEPVP [NEK8], the protein stability index is 3.12 ± 0.14 under setting [1] and 3.2 ± 0.14 under setting [2].

Turning to LAGAALEPAGGGRSREARSRLLLL [SMAD6], the protein stability index by setting is: under setting [1], 3.38 ± 0.27; under setting [2], 3.65 ± 0.31.

For LALFSHLVNHVNIRLQAELEEGEN [SMG5], the protein stability index worked out at 2.5 ± 0.21 under setting [1] and 2.7 ± 0.44 under setting [2].

Turning to LAMGTVSLGQLPLPPIPHVFSAGT [PLAGL1], the protein stability index by setting is: under setting [1], 2.24 ± 0.26; under setting [2], 2.4 ± 0.34.

Turning to LANLRGLSEEERSEKAMLRSRIEE [CCDC89], the protein stability index runs as follows: under setting [1], 4.67 ± 0.22; under setting [2], 4.68 ± 0.12.

LASHLPVGVMLPHNTTEAPGPHSA [ZC2HC1C]: the protein stability index under setting [1] turned out to be 4.3 ± 0.21 and the protein stability index under setting [2] amounted to 4.17 ± 0.21.

LASQALTPPPGPASAQPLPAPEAA [TFE3]: the protein stability index amounted to 5.26 ± 0.25 under setting [1] and 5.24 ± 0.11 under setting [2].

Turning to LAVYIDKVRSLETENSALQLQVTE [LMNB1], the protein stability index by setting is: under setting [1], 2.25 ± 0.24; under setting [2], 2.52 ± 0.083.

As to LCARLAAGPGAAEPLPVERDPAAG [ZNF511], the protein stability index runs as follows: under setting [1], 4.47 ± 0.21; under setting [2], 4.6 ± 0.21.

On to LDTERPVQKRARSGPQPRLPPCLL [TRIB3], for which the protein stability index runs as follows: under setting [1], 3.89 ± 0.41; under setting [2], 4.1 ± 0.3.

Consider LDYTADEDGVWYSVAPMNVRRGLA [KLHL12], for which the protein stability index worked out at 2.41 ± 0.81 under setting [1] and 2.99 ± 0.47 under setting [2].

With LEAQVESLKEELMCLKKNHEEEVS [KRT36], the protein stability index reads like this: under setting [1], 5.47 ± 0.42; under setting [2], 5.46 ± 0.15.

Take LEEKRLTWRLPDVSEAGGSGRLSA [FCHO1]: the protein stability index is, setting by setting: under setting [1], 4.37 ± 0.25; under setting [2], 4.25 ± 0.044.

For the sequence LEFSLLSYAFGKFPTVVWTWWIMF [SOAT1], the protein stability index reads like this: under setting [1], 2.98 ± 0.6; under setting [2], 2.95 ± 0.59.
